Laboratory results taken from publication PMC4550541 (Protein Engineering, Design and Selection, 2015).

Target: HER2 (extracellular domain only), soluble, recombinantly expressed, biotinylated (human) (UniProt P04626)
Test: BLI; Octet Red; biotinylated HER2 (10 μg/ml) loaded on streptavidin biosensors, DARPins in solution (eight concentrations, highest 50 nM); PBS pH 7.4, 0.01% BSA, 0.01% Tween 20; 1:1 Langmuir model, global kinetic fit

Kd: 390 pM | koff: 0.00037 s⁻¹ | kon: 950000 M⁻¹ s⁻¹
B1: DARPin F1 (designed binder)
chain: DLGKKLLEAARAGEDDEVRVLMANGADVNAKDEYGLAPLYHATAHGHLEIVEVLLKNGADVNAVDAIGFTPLHLAAFIGHLEIAEVLLRHGADVNAQDKFGKTAFDISIDNVNEDLAEILQKL
notes: source: E. coli M15 (pQE30), purified (His trap; SEC on Superdex 75 for large scale); not shown: His6, N-terminal, kept
